Reference: article PMC11134608, “UBR5 forms ligand-dependent complexes on chromatin to regulate nuclear hormone receptor stability” (Molecular cell, 2023)
Primed or numbered codes have the meaning given here. No end group written: not given here. fluorescein″ = fluorescein (FAM) label on the N-terminus (fluorescent label)

B1: RARA/RXRA heterodimer (ligand-binding domains) (complex)
chain 1: SESYTLTPEVGELIEKVRKAHQETFPALCQLGKYTTNNSSEQRVSLDIDLWDKFSELSTKCIIKTVEFAKQLPGFTTLTIADQITLLKAACLDILILRICTRYTPEQDTMTFSDGLTLNRTQMHNAGFGPLTDLVFAFANQLLPLEMDDAETGLLSAICLICGDRQDLEQPDRVDMLQEPLLEALKVYVRKRRPSRPHMFPKMLMKITDLRSISAKGAERVITLKMEIPGSMPPLIQEMLENSEGLD
chain 2: SSANEDMPVERILEAELAVEPKTETYVEANMGLNPSSPNDPVTNICQAADKQLFTLVEWAKRIPHFSELPLDDQVILLRAGWNELLIASFSHRSIAVKDGILLATGLHVHRNSAHSAGVGAIFDRVLTELVSKMRDMQMDKTELGCLRAIVLFNPDSKGLSNPAEVEALREKVYASLEAYCKHKYPEQPGRFAKLLLRLPALRSIGLKCLEHLFFFKLIGDTPIDTFLMEMLEAPHQMT
notes: LBD constructs are stated for the negative stain EM; also called RARA/RXRA^LBD; RARA/RXRA LBD heterodimer; source: E. coli BL21-CodonPlus(DE3)-RIL, purified (HisTrap, SEC); not shown: His6, N-terminal, kept

How the values were obtained:
[1] = molecular target: B1; test: fluorescence polarisation; competitive reverse titration: tracer Flc-NCOA1 peptide 10 nM and RARA/RXRA 0.5 μM, unlabeled competitor peptides 0–85 μM; 20 mM HEPES pH 7.4, 110 mM NaCl, 500 μM TCEP, 1% glycerol, 0.1% pluronic acid, with or without 100 μM all-trans-retinoic acid; room temperature; conditions: both partners purified
[2] = molecular target: T1, Full-length human FLAG-UBR5 (human, UniProt O95071 1-2799); test: pull-down; FLAG-UBR5 (15 pmol) immobilised on FLAG M2 beads, 150 pmol nuclear receptor protein added with 50 μM agonist ligand (ATRA, 9-cis RA, both, estradiol or calcitriol); 25 mM HEPES pH 7.4, 125 mM NaCl, 0.05% TWEEN-20; 4°C; eluted with 3xFLAG peptide, western blot; conditions: both partners purified
T1 construct: UBR5 (ubiquitin protein ligase E3 component n-recognin 5), human, full length; Tetramer by SEC-MALS and cryo-EM; also called ubiquitin protein ligase E3 component n-recognin 5; UBR5 tetramer, WT; source: HEK293F (Expi293 system), transient expression, purified (FLAG M2, Mono Q, Superose 6); not shown: FLAG, N-terminal, kept
T1 sequence (O95071 whole entry): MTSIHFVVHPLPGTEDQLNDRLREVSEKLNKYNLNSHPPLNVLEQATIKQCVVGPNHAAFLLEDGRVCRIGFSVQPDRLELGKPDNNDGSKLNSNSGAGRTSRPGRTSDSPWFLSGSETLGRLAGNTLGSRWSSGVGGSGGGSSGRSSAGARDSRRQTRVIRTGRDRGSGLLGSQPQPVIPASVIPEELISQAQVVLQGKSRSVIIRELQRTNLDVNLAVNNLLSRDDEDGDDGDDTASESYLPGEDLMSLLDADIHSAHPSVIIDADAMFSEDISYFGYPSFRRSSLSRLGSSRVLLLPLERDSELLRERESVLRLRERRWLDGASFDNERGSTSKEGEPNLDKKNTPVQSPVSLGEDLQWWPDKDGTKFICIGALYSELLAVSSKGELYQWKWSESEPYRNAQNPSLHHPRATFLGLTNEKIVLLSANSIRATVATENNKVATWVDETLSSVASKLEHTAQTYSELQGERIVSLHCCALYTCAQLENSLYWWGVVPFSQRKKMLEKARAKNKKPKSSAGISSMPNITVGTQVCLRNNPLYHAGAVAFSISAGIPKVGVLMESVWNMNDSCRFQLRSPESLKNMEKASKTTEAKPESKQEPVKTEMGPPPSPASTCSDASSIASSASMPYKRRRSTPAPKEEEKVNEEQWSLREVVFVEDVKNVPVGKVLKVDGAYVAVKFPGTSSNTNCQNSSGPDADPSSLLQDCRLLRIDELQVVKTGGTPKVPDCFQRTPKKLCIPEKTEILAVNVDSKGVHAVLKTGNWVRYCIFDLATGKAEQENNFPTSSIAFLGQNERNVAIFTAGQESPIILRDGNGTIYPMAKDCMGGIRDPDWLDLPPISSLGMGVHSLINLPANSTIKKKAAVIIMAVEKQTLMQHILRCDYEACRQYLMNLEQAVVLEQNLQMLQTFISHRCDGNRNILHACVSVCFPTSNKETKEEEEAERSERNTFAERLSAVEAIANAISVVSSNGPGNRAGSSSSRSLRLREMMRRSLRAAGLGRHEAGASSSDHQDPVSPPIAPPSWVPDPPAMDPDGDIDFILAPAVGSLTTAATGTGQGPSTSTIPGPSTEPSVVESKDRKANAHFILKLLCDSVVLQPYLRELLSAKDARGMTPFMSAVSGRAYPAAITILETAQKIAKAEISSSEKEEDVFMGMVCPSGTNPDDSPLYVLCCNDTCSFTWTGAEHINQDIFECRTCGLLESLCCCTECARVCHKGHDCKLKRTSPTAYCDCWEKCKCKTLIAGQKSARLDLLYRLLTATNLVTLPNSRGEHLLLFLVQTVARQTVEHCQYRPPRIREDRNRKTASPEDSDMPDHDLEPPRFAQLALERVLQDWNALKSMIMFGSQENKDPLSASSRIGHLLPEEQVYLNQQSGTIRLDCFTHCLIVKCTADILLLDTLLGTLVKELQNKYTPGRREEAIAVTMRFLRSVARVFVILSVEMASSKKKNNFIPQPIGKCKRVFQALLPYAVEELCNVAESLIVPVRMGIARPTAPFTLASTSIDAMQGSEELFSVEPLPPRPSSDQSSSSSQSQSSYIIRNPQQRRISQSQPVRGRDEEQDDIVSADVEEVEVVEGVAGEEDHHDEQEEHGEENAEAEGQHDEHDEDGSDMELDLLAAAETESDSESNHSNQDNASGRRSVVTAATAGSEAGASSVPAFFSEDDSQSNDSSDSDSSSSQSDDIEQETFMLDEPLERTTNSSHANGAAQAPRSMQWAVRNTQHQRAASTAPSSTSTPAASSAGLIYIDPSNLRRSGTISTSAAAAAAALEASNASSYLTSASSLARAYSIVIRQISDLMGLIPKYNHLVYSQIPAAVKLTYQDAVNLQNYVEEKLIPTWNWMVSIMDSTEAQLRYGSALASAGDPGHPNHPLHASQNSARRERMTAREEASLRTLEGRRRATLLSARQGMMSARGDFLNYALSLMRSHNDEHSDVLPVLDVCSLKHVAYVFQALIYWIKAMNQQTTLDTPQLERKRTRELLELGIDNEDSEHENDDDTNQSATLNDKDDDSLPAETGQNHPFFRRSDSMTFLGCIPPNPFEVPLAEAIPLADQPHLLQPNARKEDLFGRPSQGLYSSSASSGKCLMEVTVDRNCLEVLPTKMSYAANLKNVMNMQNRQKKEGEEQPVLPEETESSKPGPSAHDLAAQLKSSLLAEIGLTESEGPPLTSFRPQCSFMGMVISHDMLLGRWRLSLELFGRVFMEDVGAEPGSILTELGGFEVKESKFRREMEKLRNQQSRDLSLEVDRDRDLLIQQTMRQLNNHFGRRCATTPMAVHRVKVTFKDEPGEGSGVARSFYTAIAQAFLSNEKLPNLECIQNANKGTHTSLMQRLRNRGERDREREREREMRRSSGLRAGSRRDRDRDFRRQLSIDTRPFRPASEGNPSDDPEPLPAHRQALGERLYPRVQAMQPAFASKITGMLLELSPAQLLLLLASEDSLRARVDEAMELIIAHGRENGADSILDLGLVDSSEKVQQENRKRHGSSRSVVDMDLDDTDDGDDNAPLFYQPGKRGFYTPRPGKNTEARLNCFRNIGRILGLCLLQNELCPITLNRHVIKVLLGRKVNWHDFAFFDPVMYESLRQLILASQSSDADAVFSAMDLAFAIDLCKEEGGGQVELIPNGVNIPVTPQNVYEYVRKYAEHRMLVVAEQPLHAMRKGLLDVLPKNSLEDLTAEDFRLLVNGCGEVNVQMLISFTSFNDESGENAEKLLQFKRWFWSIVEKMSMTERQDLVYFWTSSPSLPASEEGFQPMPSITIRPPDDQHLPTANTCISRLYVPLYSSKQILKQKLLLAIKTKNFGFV

Row | binding result [1] | binding result [2] | Binder
1 | binds |  | {fluorescein″}-ARHKILHRLLQEGS (NCOA1 LxxLL peptide, printed as residues 687-698; also called Fluorescein NCOA1 peptide aa687-698; source: synthetic peptide; bought: Peptides & Elephants) [Fluorescein-labelled NCOA1 peptide residues 687–698 (Flc-ARHKILHRLLQEGS)]
2 |  | binds | His-tagged ER ligand-binding domain (aa301-552) (domain or fragment, UniProt P03372 301-552, looked up, also called estrogen receptor; source: E. coli BL21-CodonPlus(DE3)-RIL, purified (HisTrap, SEC); not shown: His6, N-terminal, kept) SKKNSLALSLTADQMVSALLDAEPPILYSEYDPTRPFSEASMMGLLTNLADRELVHMINWAKRVPGFVDLTLHDQVHLLECAWLEILMIGLVWRSMEHPGKLLFAPNLLLDRNQGKCVEGMVEIFDMLLATSSRFRMMNLQGEEFVCLKSIILLNSGVYTFLSSTLKSLEEKDHIHRVLDKITDTLIHLMAKAGLTLQQQHQRLAQLLLILSHIRHMSNKGMEHLYSMKCKNVVPLYDLLLEMLDAHRLHAP
3 |  | binds | VDR aa118-427 (recombinant) (domain or fragment, UniProt P11473 118-427, looked up, also called vitamin D receptor; source: E. coli BL21-CodonPlus(DE3)-RIL, purified (HisTrap, SEC)) DSLRPKLSEEQQRIIAILLDAHHKTYDPTYSDFCQFRPPVRVNDGGGSHPSRPNSRHTPSFSGDSSSSCSDHCITSSDMMDSSSFSNLDLSEEDSDDPSVTLELSQLSMLPHLADLVSYSIQKVIGFAKMIPGFRDLTSEDQIVLLKSSAIEVIMLRSNESFTMDDMSWTCGNQDYKYRVSDVTKAGHSLELIEPLIKFQVGLKKLNLHEEEHVLLMAICIVSPDRPGVQDAALIEAIQDRLSNTLQTYIRCRHPPPGSHLLYAKMIQKLADLRSLNEEHSKQYRCLSFQPECSMKLTPLVLEVFGNEIS
4 |  | binds | His-tagged RARA ligand-binding domain (aa175-421) (domain or fragment, UniProt P10276 175-421, looked up, no cleavage of the His6-Smt3 fusion is described, and the protein is called His-tagged in the pull-downs, so Smt3 was probably still on; also called His-RARA; RARA LBD; source: E. coli BL21-CodonPlus(DE3)-RIL, purified (HisTrap, SEC); not shown: His6, N-terminal, kept) SESYTLTPEVGELIEKVRKAHQETFPALCQLGKYTTNNSSEQRVSLDIDLWDKFSELSTKCIIKTVEFAKQLPGFTTLTIADQITLLKAACLDILILRICTRYTPEQDTMTFSDGLTLNRTQMHNAGFGPLTDLVFAFANQLLPLEMDDAETGLLSAICLICGDRQDLEQPDRVDMLQEPLLEALKVYVRKRRPSRPHMFPKMLMKITDLRSISAKGAERVITLKMEIPGSMPPLIQEMLENSEGLD
5 |  | binds | B1
